Experimental data as given in paper PMC5761276.

Legend:
[1] = target: LAT-FYFF (monovalent LAT1Y, residue 48-233), phosphorylated (UniProt O43561); experiment: single-molecule dwell time analysis
[2] = target: LAT-FYFF (monovalent LAT1Y, residue 48-233), phosphorylated (UniProt O43561); experiment: ITC

Grb2-Alexa Fluor 647, sequence (P62993 whole entry): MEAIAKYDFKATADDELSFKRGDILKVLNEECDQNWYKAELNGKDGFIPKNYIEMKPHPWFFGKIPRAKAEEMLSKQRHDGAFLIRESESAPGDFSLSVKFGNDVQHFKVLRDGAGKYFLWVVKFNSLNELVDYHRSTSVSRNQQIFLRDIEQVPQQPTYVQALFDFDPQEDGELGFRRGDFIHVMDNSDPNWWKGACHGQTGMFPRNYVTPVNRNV

Q: Which results are given for “Grb2-Alexa Fluor 647 (from UniProt P62993 1-217) (natural protein)”?
A: koff [1]: 3.4 s⁻¹; relative on-rate (against LAT-FFFY:Grb2 = 1) [1]: 1.25; Kd [2]: 0.463 µM; dH [2]: -15 kcal/mol
